Test results: patent publication US20190314526A1

Assays:
[1] = target: AAV-2 capsid mutant V571K (rAAV-2 virion) (AAV-2) (UniProt P03135); test: A20/IgG sandwich ELISA: capture on coated Panglobulin, detection with A20-biotin; against wild type
[2] = target: AAV-2 with a wild-type capsid (rAAV-2 virion) (AAV-2) (UniProt P03135); test: cell-based or functional assay
[3] = target: AAV-2 capsid mutant D132N (rAAV-2 virion) (AAV-2) (UniProt P03135); test: cell-based or functional assay
[4] = target: AAV-2 capsid mutant Q438A (rAAV-2 virion) (AAV-2) (UniProt P03135); test: cell-based or functional assay
[5] = target: AAV-2 capsid mutant S127A (rAAV-2 virion) (AAV-2) (UniProt P03135); test: cell-based or functional assay
[6] = target: AAV-2 capsid mutant K390A (rAAV-2 virion) (AAV-2) (UniProt P03135); test: cell-based or functional assay
[7] = target: AAV-2 capsid mutant G128A (rAAV-2 virion) (AAV-2) (UniProt P03135); test: cell-based or functional assay
[8] = target: AAV-2 capsid mutant F396A (rAAV-2 virion) (AAV-2) (UniProt P03135); test: cell-based or functional assay
[9] = target: AAV-2 capsid mutant N450A (rAAV-2 virion) (AAV-2) (UniProt P03135); test: cell-based or functional assay
[10] = target: AAV-2 capsid mutant K407A (rAAV-2 virion) (AAV-2) (UniProt P03135); test: cell-based or functional assay
[11] = target: AAV-2 capsid mutant V571K (rAAV-2 virion) (AAV-2) (UniProt P03135); test: cell-based or functional assay
[12] = target: AAV-2 capsid mutant E394A (rAAV-2 virion) (AAV-2) (UniProt P03135); test: cell-based or functional assay
[13] = target: AAV-2 capsid mutant T413K (rAAV-2 virion) (AAV-2) (UniProt P03135); test: cell-based or functional assay
[14] = target: AAV-2 capsid mutant R334A/N568A (rAAV-2 virion) (AAV-2) (UniProt P03135); test: cell-based or functional assay
[15] = target: AAV-2 capsid mutant N568A (rAAV-2 virion) (AAV-2) (UniProt P03135); test: cell-based or functional assay
[16] = target: AAV-2 capsid mutant E411A/T413A/G449A/N450A/N568A/V571A (rAAV-2 virion) (AAV-2) (UniProt P03135); test: cell-based or functional assay
[17] = target: AAV-2 capsid mutant E418A (rAAV-2 virion) (AAV-2) (UniProt P03135); test: cell-based or functional assay
[18] = target: AAV-2 capsid mutant E394K (rAAV-2 virion) (AAV-2) (UniProt P03135); test: cell-based or functional assay
[19] = target: AAV-2 capsid mutant G375P (rAAV-2 virion) (AAV-2) (UniProt P03135); test: cell-based or functional assay
[20] = target: AAV-2 capsid mutant D377A (rAAV-2 virion) (AAV-2) (UniProt P03135); test: cell-based or functional assay
[21] = target: AAV-2 capsid mutant Q452A (rAAV-2 virion) (AAV-2) (UniProt P03135); test: cell-based or functional assay
[22] = target: AAV-2 capsid mutant R334A/G449A (rAAV-2 virion) (AAV-2) (UniProt P03135); test: cell-based or functional assay
[23] = target: AAV-2 capsid mutant K569A (rAAV-2 virion) (AAV-2) (UniProt P03135); test: cell-based or functional assay
[24] = target: AAV-2 capsid mutant N360H/S361A (rAAV-2 virion) (AAV-2) (UniProt P03135); test: cell-based or functional assay
[25] = target: AAV-2 capsid mutant S130A (rAAV-2 virion) (AAV-2) (UniProt P03135); test: cell-based or functional assay
[26] = target: AAV-2 capsid mutant V571A (rAAV-2 virion) (AAV-2) (UniProt P03135); test: cell-based or functional assay
[27] = target: AAV-2 capsid mutant N568A/V571A (rAAV-2 virion) (AAV-2) (UniProt P03135); test: cell-based or functional assay
[28] = target: AAV-2 capsid mutant R448K (rAAV-2 virion) (AAV-2) (UniProt P03135); test: cell-based or functional assay
[29] = target: AAV-2 capsid mutant S130T (rAAV-2 virion) (AAV-2) (UniProt P03135); test: cell-based or functional assay
[30] = target: AAV-2 capsid mutant R334A/G449A/N568A (rAAV-2 virion) (AAV-2) (UniProt P03135); test: cell-based or functional assay
[31] = target: AAV-2 capsid mutant G449A/N568A (rAAV-2 virion) (AAV-2) (UniProt P03135); test: cell-based or functional assay
[32] = target: AAV-2 capsid mutant N133A (rAAV-2 virion) (AAV-2) (UniProt P03135); test: cell-based or functional assay
[33] = target: AAV-2 capsid mutant H372K (rAAV-2 virion) (AAV-2) (UniProt P03135); test: cell-based or functional assay
[34] = target: AAV-2 capsid mutant T354A (rAAV-2 virion) (AAV-2) (UniProt P03135); test: cell-based or functional assay
[35] = target: AAV-2 capsid mutant E437A (rAAV-2 virion) (AAV-2) (UniProt P03135); test: cell-based or functional assay
[36] = target: AAV-2 capsid mutant R334A (rAAV-2 virion) (AAV-2) (UniProt P03135); test: cell-based or functional assay
[37] = target: AAV-2 capsid mutant D357E (rAAV-2 virion) (AAV-2) (UniProt P03135); test: cell-based or functional assay
[38] = target: AAV-2 capsid mutant K395A (rAAV-2 virion) (AAV-2) (UniProt P03135); test: cell-based or functional assay
[39] = target: AAV-2 capsid mutant D357N (rAAV-2 virion) (AAV-2) (UniProt P03135); test: cell-based or functional assay

Substance: purified human IgG from >10,000 donors (Panglobulin, ZLB Bioplasma AG)
- fold reduction of binding [1]: 100 fold
- Fold decrease in neutralizing titer [2]: 1 fold
- Fold decrease in neutralizing titer [3]: 3.8 fold
- Fold decrease in neutralizing titer [4]: 1.3 fold
- Fold decrease in neutralizing titer [5]: 2.2 fold
- Fold decrease in neutralizing titer [6]: 2.3 fold
- Fold decrease in neutralizing titer [7]: 4.1 fold
- Fold decrease in neutralizing titer [8]: 1.6 fold
- Fold decrease in neutralizing titer [9]: 1.6 fold
- Fold decrease in neutralizing titer [10]: 3.3 fold
- Fold decrease in neutralizing titer [11]: 1 fold
- Fold decrease in neutralizing titer [12]: 1.5 fold
- Fold decrease in neutralizing titer [13]: 2.6 fold
- Fold decrease in neutralizing titer [14]: 2.4 fold
- Fold decrease in neutralizing titer [15]: 2 fold
- Fold decrease in neutralizing titer [16]: 1.3 fold
- Fold decrease in neutralizing titer [17]: 1.5 fold
- Fold decrease in neutralizing titer [18]: 2.3 fold
- Fold decrease in neutralizing titer [19]: 1.9 fold
- Fold decrease in neutralizing titer [20]: 1.9 fold
- Fold decrease in neutralizing titer [21]: 1.3 fold
- Fold decrease in neutralizing titer [22]: 3.9 fold
- Fold decrease in neutralizing titer [23]: 4 fold
- Fold decrease in neutralizing titer [24]: 2.1 fold
- Fold decrease in neutralizing titer [25]: 1.4 fold
- Fold decrease in neutralizing titer [26]: 3.9 fold
- Fold decrease in neutralizing titer [27]: 2.5 fold
- Fold decrease in neutralizing titer [28]: 1 fold
- Fold decrease in neutralizing titer [29]: 1.8 fold
- Fold decrease in neutralizing titer [30]: 3 fold
- Fold decrease in neutralizing titer [31]: 1.7 fold
- Fold decrease in neutralizing titer [32]: 0.9 fold
- Fold decrease in neutralizing titer [33]: 1.1 fold
- Fold decrease in neutralizing titer [34]: 2.9 fold
- Fold decrease in neutralizing titer [35]: 2 fold
- Fold decrease in neutralizing titer [36]: 2.2 fold
- Fold decrease in neutralizing titer [37]: 1.7 fold
- Fold decrease in neutralizing titer [38]: 4.9 fold
- Fold decrease in neutralizing titer [39]: 1.8 fold
